Assay results: patent US20180355003A1

Assays:
[1] = biological target: His-tagged IDO1 human recombinant protein (71182, BPS Biosciences) (UniProt P14902); test: ELISA
Human IDO1 = Human IDO1 (UniProt P14902); test: ELISA
Human IDO1, sequence (P14902 2-403): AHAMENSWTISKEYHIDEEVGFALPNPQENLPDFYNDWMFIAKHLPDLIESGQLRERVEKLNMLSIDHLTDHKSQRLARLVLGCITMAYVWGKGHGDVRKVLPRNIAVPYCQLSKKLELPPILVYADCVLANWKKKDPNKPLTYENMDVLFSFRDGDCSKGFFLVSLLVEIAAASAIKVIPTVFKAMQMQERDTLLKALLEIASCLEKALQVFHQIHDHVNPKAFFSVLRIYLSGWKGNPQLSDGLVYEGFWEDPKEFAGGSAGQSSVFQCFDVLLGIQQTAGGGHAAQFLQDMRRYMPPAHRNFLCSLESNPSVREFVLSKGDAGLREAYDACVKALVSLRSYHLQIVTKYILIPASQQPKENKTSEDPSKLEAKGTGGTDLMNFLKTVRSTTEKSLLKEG

His-tagged IDO1 human recombinant protein (71182, BPS Biosciences), sequence (P14902 2-403): as above

Work on Biotin-PEG3-Cy(nlf(Me-Trp)a) yielded an EC50 [1] of 104 nM.

w--ray showed an EC50 (Human IDO1) of 79 nM.

ww(F-Phe) showed an EC50 (Human IDO1) of 96 nM.

With yray the EC50 (Human IDO1) was 113 nM.
